{"source": "patent US10538591B2", "about": "“Anti-fibulin-3 antibodies and uses thereof” (THE BRIGHAM AND WOMEN'S HOSPITAL, INC., priority 2014, dated 2020)", "molecules": {"B1": {"name": "mAb428.2: mouse monoclonal IgG1 kappa antibody against human fibulin-3 peptide SEQ ID NO:2; VH SEQ ID NO: 3, VL SEQ ID NO: 4 (antibody, V domains shown)", "VH": "QIQLVQSGPELKKPGETVKISCKASGYSFTTYGMSWVKQAPGKGLKWMGWINTYSGVPTYADDFKGRFAFFLETSASTAYLQINNLKNEDTATYFCARWVDYWGQGTTLTVSS", "VL": "DIKMTQSPSSMYASLGERVTITCKASQDIKSYLSWHQQKPWKSPKTLIYYATSLADGVPSRFSGSGSGQDYSLTISSLESDDTATYYCLQHGKSPYTFGGGTKLEIK"}}, "target": "T1, fibulin-3 in human primary glioblastoma (Homo sapiens, UniProt Q12805)", "T1 construct": "specificity of mAb428.3C11 to detect native fibulin-3 in tumor tissue; from tissue; host or cells: frozen sections of human primary glioblastoma", "T1 sequence (Q12805 18-493)": "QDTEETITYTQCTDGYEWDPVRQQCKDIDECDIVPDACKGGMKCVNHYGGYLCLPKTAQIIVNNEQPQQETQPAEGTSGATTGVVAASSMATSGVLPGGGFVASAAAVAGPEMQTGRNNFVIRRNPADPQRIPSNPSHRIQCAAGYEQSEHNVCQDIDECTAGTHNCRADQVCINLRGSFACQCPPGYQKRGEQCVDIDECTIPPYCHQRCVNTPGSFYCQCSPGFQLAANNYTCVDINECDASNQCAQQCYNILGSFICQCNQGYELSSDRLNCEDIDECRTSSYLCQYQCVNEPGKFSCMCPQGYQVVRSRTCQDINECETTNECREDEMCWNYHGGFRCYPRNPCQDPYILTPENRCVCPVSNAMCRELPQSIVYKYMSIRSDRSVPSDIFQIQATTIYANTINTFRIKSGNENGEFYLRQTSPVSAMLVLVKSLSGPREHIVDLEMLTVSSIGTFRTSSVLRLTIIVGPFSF", "test": "Immunohistochemistry of human primary glioblastoma sections", "conditions": "anti-Fib3/911 10 μg/ml, mAb428.3C11 40 μg/ml, mAb3-5 5 μg/ml", "experimental": "Frozen sections of human primary glioblastoma and normal adult human brain were fixed in ethanol/acetate buffer and processed for immunohistochemistry with the following anti-fibulin-3 antibodies: rabbit polyclonal anti-Fib3/911 (10 μg/ml), mouse monoclonal anti-fibulin-3 mAb428.3C11 (40 μg/ml), and a commercial mouse monoclonal antibody against human fibulin-3 (mAb3-5, 5 μg/ml, Santa Cruz Biotechnology). […] Both in-house generated antibodies show stronger staining in the tumor parenchyma compared to the commercial antibody. In all cases, staining is particularly intense around tumor blood vessels. […] Sections were counterstained to identify endothelial markers and cell nuclei by staining with anti-CD31 and DAPI respectively. (Data not shown).\nSpecific and striking fibrillar staining patterns of fibulin-3 were observed around tumor blood vessels (magnification: 40×). […] Endothelial cells were stained with anti-CD31 and cell nuclei with the dye DAPI. (Data not shown).", "note": "“Also recorded” adds a separate entry of the source.", "data": [{"molecule": "B1", "values": [{"measurement": "fibulin-3 staining in glioblastoma tissue", "value": "detected fibulin-3 in the stroma and capillaries of human GBM"}, {"measurement": "fibulin-3 staining in glioblastoma tissue", "setting": "listed as mAb428.3C11", "value": "Specific staining of fibulin-3 in tumor tissue; also recorded: detected the same fibrillar pattern observed with a commercial anti-fibulin-3 antibody"}]}]}
